The values that follow come from patent US9618524B2, “Method, composition, isolation and identification of a plaque particle and related biomarker” (Plaxgen Inc., priority 2012, dated 2017).

The chains are these.
B1: Complement C1r subcomponent (protein)
chain: SIPIPQKLFGEVTSPLFPKPYPNNFETTTVITVPTGYRVKLVFQQFDLEPSEGCFYDYVKISADKKSLGRFCGQLGSPLGNPPGKKEFMSQGNKMLLTFHTDFSNEENGTIMFYKGFLAYYQAVDLDECASRSKSGEEDPQPQCQHLCHNYVGGYFCSCRPGYELQEDTHSCQAECSSELYTEASGYISSLEYPRSYPPDLRCNYSIRVERGLTLHLKFLEPFDIDDHQQVHCPYDQLQIYANGKNIGEFCGKQRPPDLDTSSNAVDLLFFTDESGDSRGWKLRYTTEIIKCPQPKTLDEFTIIQNLQPQYQFRDYFIATCKQGYQLIEGNQVLHSFTAVCQDDGTWHRAMPRCKIKDCGQPRNLPNGDFRYTTTMGVNTYKARIQYYCHEPYYKMQTRAGSRESEQGVYTCTAQGIWKNEQKGEKIPRCLPVCGKPVNPVEQRQRIIGGQKAKMGNFPWQVFTNIHGRGGGALLGDRWILTAAHTLYPKEHEAQSNASLDVFLGHTNVEELMKLGNHPIRRVSVHPDYRQDESYNFEGDIALLELENSVTLGPNLLPICLPDNDTFYDLGLMGYVSGFGVMEEKIAHDLRFVRLPVANPQACENWLRGKNRMDVFSQNMFCAGHPSLKQDACQGDSGGVFAVRDPNTDRWVATGIVSWGIGCSRGYGFYTKVLNYVDWIKKEMEEED
B2: Complement factor I (protein)
chain: KVTYTSQEDLVEKKCLAKKYTHLSCDKVFCQPWQRCIEGTCVCKLPYQCPKNGTAVCATNRRSFPTYCQQKSLECLHPGTKFLNNGTCTAEGKFSVSLKHGNTDSEGIVEVKLVDQDKTMFICKSSWSMREANVACLDLGFQQGADTQRRFKLSDLSINSTECLHVHCRGLETSLAECTFTKRRTMGYQDFADVVCYTQKADSPMDDFFQCVNGKYISQMKACDGINDCGDQSDELCCKACQGKGFHCKSGVCIPSQYQCNGEVDCITGEDEVGCAGFASVTQEETEILTADMDAERRRIKSLLPKLSCGVKNRMHIRRKRIVGGKRAQLGDLPWQVAIKDASGITCGGIYIGGCWILTAAHCLRASKTHRYQIWTTVVDWIHPDLKRIVIEYVDRIIFHENYNAGTYQNDIALIEMKKDGNKKDCELPRSIPACVPWSPYLFQPNDTCIVSGWGREKDNERVFSLQWGEVKLISNCSKFYGNRFYEKEMECAGTYDGSIDACKGDSGGPLVCMDANNVTYVWGVVSWGENCGKPEFPGVYTKVANYFDWISYHVGRPFISQYNV
B3: Heparin cofactor 2 (protein)
chain: GSKGPLDQLEKGGETAQSADPQWEQLNNKNLSMPLLPADFHKENTVTNDWIPEGEEDDDYLDLEKIFSEDDDYIDIVDSLSVSPTDSDVSAGNILQLFHGKSRIQRLNILNAKFAFNLYRVLKDQVNTFDNIFIAPVGISTAMGMISLGLKGETHEQVHSILHFKDFVNASSKYEITTIHNLFRKLTHRLFRRNFGYTLRSVNDLYIQKQFPILLDFKTKVREYYFAEAQIADFSDPAFISKTNNHIMKLTKGLIKDALENIDPATQMMILNCIYFKGSWVNKFPVEMTHNHNFRLNEREVVKVSMMQTKGNFLAANDQELDCDILQLEYVGGISMLIVVPHKMSGMKTLEAQLTPRVVERWQKSMTNRTREVLLPKFKLEKNYNLVESLKLMGIRMLFDKNGNMAGISDQRIAIDLFKHQGTITVNEEGTQATTVTTVGFMPLSTQVRFTVDRPFLFLIYEHRTSCLLFMGRVANPSRS

One test has as its system High Density cholesterol (Chl Large) plaque particles. The experiment in a line: Mass spectroscopy proteomics, semi-quantitative binding affinity of serum proteins (plaqueproteome, Table 2). Particulars: higher number = stronger affinity. Further details: species or system human. Here is the method: (§1) The goal was to isolate plaque particles synthesized in the bio-fluids in a relatively pure form to enable their subsequent use for identification of components that contribute to the plaque formation. In order to isolate cholesterol plaque particles, the plasma or serum samples obtained from atherosclerotic subjects were first centrifuged at 5,000 rpm for 5 min and the supernatants were transferred to new centrifuge tubes. Next, the supernatants were diluted in PBS to make 50% of the serum and used for incubation with cholesterol oligomers/aggregates. Each assay was performed in 1 mL reaction (800 μL of 50% plasma or serum) and 200 μL (30 μg) of the Cholesterol aggregates and the mixtures were incubated at 37° C. for 1 hr After the incubation, the mixture was directly used for sample acquisition using flow cytometer (FACS ARIA II, BD Biosciences, San Jose, Calif.). […] In order to isolate these fractions, three sets of gates were drawn in the acquisition blot to separately sort and isolate High density or high complex cholesterol particles, Low density or low complex cholesterol particles and both High and low density cholesterol particles together.
(§2) For preparing trypsin digested peptide sequences, the isolated plaque particles were centrifuged at 10000 rpm for 5 min and the pellet containing plaque particles was resuspended in 100 μl PBS buffer. Stock solutions of digestion buffer (Ammonium Biocarbonate 50 mM), reducing buffer (DDT 100 mM) and alkylation buffer (lodoaceamide 100 mM) were prepared and stored at −20° C. for up to two months. For trypsin digestion, 100 μl of each plaque particles (2000 of Abeta-42, cholesterol, Tau and alpha-synuclein) were precipitated using cold acetone −80° C. by adding 4X's the volume. The samples were placed on dry ice for 10 min with intermittent vortex. Next, the samples were centrifuged at 4° C. at 10000 G for 10 min. Top layer of acetone was carefully removed from the tube with care not to disturb the plaque particles pellet. The samples were speed-vac for 10 min to ensure all acetone has been boiled away. The plaque particles pellet were reconstituted with 15 μl 8M Urea 100 mM Ammonium bicarbonate stock and 20 μl protease max solution. The protease max solution (Promega, Madison, Wis.) was prepared from stock by adding 60 μl 50 mM Ammonium bicarbonate and used for 3 solution digests (20 μl each). […] The tubes were incubated at 55° C. for 30 minutes. The tubes were then removed and brought to the room temperature followed by addition of 3.2 μl of 1M acrylamide and incubated at room temperature for 30 minutes. To the sample, 63 μL of 50 mM Ammonium bicarbonate was added for a final volume of 98 μl and 2 μl of trypsin (10 μg, Trypsin/Lys C Mix). After mixing the solution with pipet the samples were incubated at 37° C. overnight. After the overnight digest, the tryptic digest were quenched and acidified by adding 10 μl of 50% formic acid/water stock dilution. The samples were centrifuged at 10000 G for 2 minutes and purified using stage tip and used for MS/Mass analysis.
(§3) All MS/MS samples were analyzed using Sequest (Thermo Fisher Scientific, San Jose, Calif., USA; version 1.0). Sequest was set up to search the SUMS_uniprot_Human database (35847 entries) assuming the digestion enzyme strict trypsin. Sequest was searched with a fragment ion mass tolerance of 1.00 Da and a parent ion tolerance of 20 PPM. Propionamide of cysteine was specified in Sequest as a fixed modification. Oxidation of methionine and phospho of serine, threonine and tyrosine were specified in Sequest as variable modifications.
(§4) Scaffold (version Scaffold_4.2.1, Proteome Software Inc., Portland, Oreg.) was used to validate MS/MS based peptide and protein identifications. […] Protein probabilities were assigned by the Protein Prophet algorithm (Nesvizhskii, Al et al 2003).
In the case of B1, the “Semi-quantitative analysis of proteins binding to different plaque particles: Chl Large” value worked out at 2.

Turning to B2, the “Semi-quantitative analysis of proteins binding to different plaque particles: Chl Large” value is listed as 4.

As for B3, the “Semi-quantitative analysis of proteins binding to different plaque particles: Chl Large” value turned out to be 3.

A further test concerns Low density cholesterol (Chl small) plaque particles. The test is described as above. Particulars: higher number = stronger affinity. Further details: species or system human. How it is done:
as §1, §2, §3, §4
Regarding B1, the “Semi-quantitative analysis of proteins binding to different plaque particles: Chl small” value was found to be 4.

On to B2, for which the “Semi-quantitative analysis of proteins binding to different plaque particles: Chl small” value was found to be 3.

Take B3: the “Semi-quantitative analysis of proteins binding to different plaque particles: Chl small” value came out at 1.

The next test has as its target T1, alpha-synuclein plaque particles (Homo sapiens, UniProt P37840).
T1 construct: 140 amino acids polypeptide
The test is described as above. Particulars: higher number = stronger affinity. Here is the method: To prepare oligomers/aggregates of human alpha-synuclein (140 amino acids polypeptide), 1 mg of the recombinant alpha-synuclein protein was suspended in 1 mL of PBS and the sample was incubated at 37° C. for 2 hrs. After incubation, all the samples were centrifuged for 5 min. at 5000 rpm to remove precipitate, if any, and the supernatant containing oligomers/aggregates were used in vitro plaque particles formation assay. For detecting alpha-synuclein plaque particles Thioflavin S (Ex/Em=430 nm/550 nm) amyloid binding fluorescent dye (10 μg) was used.
Similarly, to isolate alpha-synuclein plaque particles, diluted plasma or serum samples obtained from AD subjects were used for incubation with alpha-synuclein plaque oligomers/aggregates. Each assay was performed in 1 mL reaction (800 μL of 50% plasma or serum) and 200 μL (30 μg) of the alpha-synuclein aggregates and the mixtures were incubated at 37° C. for 1 hr. To the mixture Thioflavin S dye (120 μg) was added and the sample was incubated for additional 30 min at 37° C. After the incubation, the mixture was directly used for sample acquisition using flow cytometer (FACS ARIA II, BD Biosciences, San Jose, Calif.). After initial detection of alpha-synuclein plaque particles, gates were drawn in the acquisition blot to separately sort and isolate fluorescently labeled alpha-synuclein particles.
as §2, §3
Scaffold (version Scaffold_4.2.1, Proteome Software Inc., Portland, Oreg.) was used to validate MS/MS based peptide and protein identifications.
Regarding B1, the “Semi-quantitative analysis of proteins binding to different plaque particles: Synuclein” value is recorded as 3.

B2: the “Semi-quantitative analysis of proteins binding to different plaque particles: Synuclein” value came to 4.

With B3, the “Semi-quantitative analysis of proteins binding to different plaque particles: Synuclein” value is reported as 1.

The target in the next test is T2, Abeta-42 plaque particles (Homo sapiens, UniProt P05067).
T2 construct: Abeta 1-42
The description is as above. The following applies: higher number = stronger affinity. How it is done: Next to isolate serum derived Abeta-42 plaque particles, the plasma or serum samples obtained from AD subjects were first centrifuged at 5,000 rpm for 5 min and the supernatants were transferred to new centrifuge tubes. Next, the supernatants were diluted in PBS to make 50% of the serum and plasma samples and used for incubation with Abeta-42 plaque oligomers/aggregates. Each assay was performed in 1 mL reaction (800 μL of 50% plasma or serum) and 200 μL (30 μg) of the Abeta-42 aggregates and the mixtures were incubated at 37° C. for 1 hr. To the mixture Thioflavin S dye (120 μg) was added and the sample was incubated for additional 30 min at 37° C. After the incubation, the mixture was directly used for sample acquisition using flow cytometer (FACS ARIA II, BD Biosciences, San Jose, Calif.). After initial detection of Abeta-42 plaque particles in the acquisition blot, gates were drawn in fluorescent dot blot to separately sort and isolate fluorescently labeled Abeta-42 particles.
as §2, §3
Scaffold (version Scaffold_4.2.1, Proteome Software Inc., Portland, Oreg.) was used to validate MS/MS based peptide and protein identifications. […] Protein probabilities were assigned by the Protein Prophet algorithm (Nesvizhskii, Al et al 2003). […] Proteins sharing significant peptide evidence were grouped into clusters. Proteins were annotated with GO terms from NCBI (downloaded Jan. 17, 2014).
With B1, the “Semi-quantitative analysis of proteins binding to different plaque particles: Abeta-42” value is given as 0.

Turning to B2, the “Semi-quantitative analysis of proteins binding to different plaque particles: Abeta-42” value amounted to 0.

Turning to B3, the “Semi-quantitative analysis of proteins binding to different plaque particles: Abeta-42” value was found to be 0.

The next test has as its system Tau plaque particles. Described as above. Particulars: higher number = stronger affinity. Further details: species or system human. How it is done:
For Tau-74 (74-102) (Exon 3/Insert 2 domain) preparation, 1 mg of Tau-74 was suspended in 1 mL of PBS and the sample was incubated at 37° C. for 2 hrs. Similarly for preparing Tau-275 (275-305) (Repeat 2 domain) 1 mg of the peptide was suspended in 1 mL of PBS and the sample was incubated at 37° C. for 2 hrs. After incubation, all the samples were centrifuged for 5 min. at 5000 rpm to remove precipitate, if any, and the supernatant containing oligomers/aggregates were used for in vitro amyloid plaque particles formation assay. For detecting Tau plaque particles, Thioflavin S (Ex/Em=430 nm/550 nm) amyloid binding fluorescent dye (10 μg) was used in the assay.
Next, to isolate Tau plaque particles, as performed for Abeta-42 and Abeta-28 plaque particles isolation, diluted serum samples were used for incubation separately with Tau-45, Tau-74 and Tau-275 oligomers/aggregates. Each assay was performed in 1 mL reaction (800 μL of 50% plasma or serum) and 200 μL (30 μg) of each Tau aggregates and the mixtures were incubated at 37° C. for 1 hr. To the each mixture Thioflavin S dye (120 μg) was added and the sample was incubated for additional 30 min at 37° C. After the incubation, each sample was directly used for sample acquisition using flow cytometer (FACS ARIA II, BD Biosciences, San Jose, Calif.). After initial detection of Tau plaque particles, gates were drawn in the acquisition blot to separately sort and isolate fluorescently labeled Tau plaque particles.
as §2, §3
In the case of B1, the “Semi-quantitative analysis of proteins binding to different plaque particles: Tau” value came to 4.

Regarding B2, the “Semi-quantitative analysis of proteins binding to different plaque particles: Tau” value stood at 3.

Regarding B3, the “Semi-quantitative analysis of proteins binding to different plaque particles: Tau” value is listed as 6.
